The source of these data is US20260069707A1, “COMBINATION THERAPY WITH ANTIBODY-DRUG CONJUGATES AND HYALURONIDASES” (HALOZYME, INC., priority 2024, published 2026).

Type in all cases: in vivo, Yucatan miniature pig (Sus scrofa domestica)
Data set [1] can be described thus: Post-injection bleb volume, area, height - 3D imaging. Conditions: minipig, 10 mL SC by HVAI, T0; n=3 alone, n=2 with rHuPH20. The procedure:
3D imaging was applied as a longitudinal methodology to measure post-injection swelling. By obtaining high definition pre- and post-injection 3D images the distances between two registered surfaces can be determined. The camera captures images using a factory calibrated bifocal imaging system to measure distance between surfaces. Surface registration was performed using a multipoint method that utilized common landmarks between the pre-injection image and the post-injection image. Using the proprietary software, the volume, area and height of the post-injection swelling was calculated for each injection (Canfield Biosciences, Inc.).
Assessment of Post-Injection Bleb Shape, Volume, Area and Height (3D Imaging). Pre- and post-injection photographs were taken using a 3D imaging system (Canfield Scientific). This technology permits point-to-point alignment of these two images through multipoint surface registration. The distance between any two points is then represented using a colorimetric surface contour map. […] The color intensity is proportional to the amount of distance measured between images with darker blue color indicating greater distance from the pre-injection image. Out of range measurements (distances greater than 6 mm) are depicted in white. Bleb measurements of volume and height include regions out of range.
These registered pre-/post-injection images were then used to calculate the bleb volume, height, circumference, length, and width for each bleb using proprietary software (Vectra H1 software; Canfield Sciences).

Data set [2] in a line: Histological analysis (H&E) of post-injection tissue samples. The text has this:
Following the assessment after day three, the animal was humanely euthanized using an injectable euthanasia drug provided by the vivarium staff. Following euthanasia full thickness punch biopsies of the injection site were taken (12 mm) and placed in 10% formalin. After obtaining the punch biopsies the animal carcass was removed and disposed of as biohazardous waste. Sections were made from tissue samples and assessed for histopathology using hematoxylin and eosin staining methods. Analyses were performed on each injection site (2 biopsies) and one untreated site. Three tissue depths were examined from each tissue section following level sectioning technique, representing the beginning, middle and end of each section.
After fixation the samples were processed and embedded into paraffin to make formalin fixed paraffin embedded (FFPE) tissues sections Each tissue section was evaluated at three different tissue depths (1-2-3; low-medium-high). In addition to tissue samples from the injection site, a sample was taken from naïve untreated tissue for comparison.
Each injection was one mL and was delivered using a pre-filled 1-cc syringe. After the last timepoint, the animal was humanely euthanized. After euthanasia, punch biopsies of each injection site were obtained and preserved in 10% formalin for histological analyses.
After fixation, the samples were processed and embedded into paraffin to make formalin fixed paraffin embedded (FFPE) tissues sections Each tissue section was evaluated at three different tissue depths (1-2-3; low-medium-high). In addition to tissue samples from the injection site, a sample was taken from two naïve untreated tissue sites for comparison. Tissue sections were prepared and stained with hematoxylin and eosin for pathohistological evaluation.
Method: After 72h, animals were euthanized and full-thickness punch biopsies taken (12 mm). FFPE sections were prepared from each injection site. Samples were evaluated at three different tissue depths. A sample of naïve skin was also included for comparison. Results: 1/3 tissue samples from ADC alone had multiple focal infiltrates in SC (all levels).

A short description of data set [3]: Qualitative assessment of local injection sites (erythema, swelling size, induration). The method, then: The needle was inserted vertically into the marked injection site and the HVAI held in place by hand. Target needle insertion depth was ˜10 mm. Injections were timed using a stopwatch. Upon completion of the injection the needle was removed and the HVAI device discarded. Test solution back-leakage was then absorbed to a tared eye-spear for 30 seconds on the injection site and the weight of the eye spear was measured using an analytical balance. The margins of the injection site bleb were marked with a permanent marker and measured for length, width, and height using a digital caliper and recorded then photographed with the standard and 3D cameras. Caliper measurements and photographs were taken immediately post-injection. Local injection sites were qualitatively assessed and graded daily for erythema severity, swelling size appearance, and firmness, using a scoring system described in Table 4 Table 5, and Table 6, respectively.
Approximately, 24 hours post-dosing of the first injection, each animal was re-anesthetized, and injection sites assessed for erythema, induration and swelling, then photographed and returned to its cage.

Setting [4] is: Example 5: post-injection, 10 mL SC by HVAI.

For the substance Sacituzumab govitecan [Trodelvy], in data set [1], the “Bleb Area (cm^2), 3D imaging (Mean ± SEM)” value is 30.5 ± 2.9 cm^2; the “Bleb Height (mm), 3D imaging (Mean ± SEM)” value was determined as 7.6 ± 1.2 mm; the “Bleb Volume (mL), 3D imaging (Mean ± SEM)” value turned out to be 8.1 ± 0.7 mL. Besides, in data set [2] (Example 3: 1 mL SC, exposure times 4 hours or less), the Local skin tolerability result is “demonstrated local skin tolerability”. Further, in data set [2] (pig, in vivo), the “Tissue samples/injections with multiple focal (immune cell) infiltrates in SC” value is 1/3. Also, in data set [2] (pig, in vivo, sc), the “Focal instances of [immune] cell infiltrates in the SC space” value came out at 2, the Necrosis is on record as 0 and the “Pathohistological findings (H&E)” value is “no findings”. Also, in data set [3] (setting [4]), the “Induration (score)” value is on record as 3.3 ± 0.3 and the “Swelling Size (score)” value is listed as 3.1 ± 0.3. Further, in data set [3] (minipig, 10 mL SC by HVAI), the “Induration at the 24, 48 or 72 hour timepoints” value is “No induration was detected” and the “Swelling at the 24, 48 or 72 hour timepoints” value is “No swelling was detected”. For the same substance, in data set [3] (minipig, 10 mL SC by HVAI, immediately post-injection, three evaluators, scale 0-4), the “Swelling Score (Mean ± SEM)” value came to 3.1 ± 0.3. In data set [3] (minipig, 10 mL SC by HVAI, immediately post-injection, two evaluators, scale 0-4), the “Induration Score (Mean ± SEM)” value was determined as 3.3 ± 0.3. In data set [3] (p<0.05, 10 mL SC), the “Hardness (induration) of post-injection blebs compared with blebs of the co-mix with rHuPH20” value was “significantly firmer”.
